Literature values as cited in article PMC4828448.

Molecular target: nisin (Lactococcus lactis) (UniProt P13068)
Chain of UniProt P13068 (P13068 24-57): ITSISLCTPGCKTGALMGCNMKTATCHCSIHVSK

In the case of NisI (from UniProt P42708), the Kd is given as 1000 nM.
